Measured values published in patent publication US20230084099A1 (NATIONAL UNIVERSITY CORPORATION TOKAI NATIONAL HIGHER …, published 2023).

T1: human MEFLIN expressed on cells (human, UniProt O14498 19-428)
T1 sequence (looked up): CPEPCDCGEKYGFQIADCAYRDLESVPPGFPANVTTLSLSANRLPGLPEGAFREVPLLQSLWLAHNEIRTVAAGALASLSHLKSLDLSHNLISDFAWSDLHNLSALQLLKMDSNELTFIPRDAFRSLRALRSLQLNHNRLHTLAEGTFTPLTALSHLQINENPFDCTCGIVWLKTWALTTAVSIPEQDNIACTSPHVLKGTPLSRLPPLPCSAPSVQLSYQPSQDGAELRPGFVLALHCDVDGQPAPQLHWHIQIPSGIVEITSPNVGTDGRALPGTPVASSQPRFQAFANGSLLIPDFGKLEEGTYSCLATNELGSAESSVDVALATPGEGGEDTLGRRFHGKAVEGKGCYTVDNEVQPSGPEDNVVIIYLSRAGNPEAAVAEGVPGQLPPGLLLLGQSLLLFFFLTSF

T2: human MEFLIN protein (human, UniProt O14498 19-428, limits assumed)
T2 construct: In the Western blot the protein and its fragments carried a C-terminal G196 tag and His tag and were expressed in HEK293 cells; also called hMEFLIN; ISLR
T2 sequence (looked up): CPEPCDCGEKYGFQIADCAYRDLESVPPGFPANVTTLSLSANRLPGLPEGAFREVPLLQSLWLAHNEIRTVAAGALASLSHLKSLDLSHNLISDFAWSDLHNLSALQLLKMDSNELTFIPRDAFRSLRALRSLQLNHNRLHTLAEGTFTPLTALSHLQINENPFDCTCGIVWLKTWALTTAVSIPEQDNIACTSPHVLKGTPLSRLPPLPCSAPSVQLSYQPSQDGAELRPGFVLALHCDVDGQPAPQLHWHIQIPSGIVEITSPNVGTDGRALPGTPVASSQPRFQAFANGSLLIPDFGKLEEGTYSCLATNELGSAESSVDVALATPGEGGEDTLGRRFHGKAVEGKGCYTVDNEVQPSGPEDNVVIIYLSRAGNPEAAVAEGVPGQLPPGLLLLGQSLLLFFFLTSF


Target: T1, human MEFLIN expressed on cells
Assay: cell-based or functional assay

| Binder | EC50 of cell proliferation inhibition (MTT test) |
| --- | --- |
| ADC27-7 (other, DAR 2.4, MMAE drug-linker on cysteine thiols exposed by DTT reduction (positions not stated)) VH: EVQLVESGGSLVQPGGSLKLSCVASGYTFSKYWMDWVRQTPGKSLEWIGEINTDGSKTNYAPSIKDRFTISRDNAKSTLYLQMSNVKSDDTAIYYCTNWEDYWGQGVMVTVSS VL: DVVMTQTPPSLSVAIGQSVSISCKSSQSLVYSDGKTYLHWLLQSSGRSPKRLIYQVSNLDSGVPDRFSGTGSQKDFTLKISRVEAKDLGVYYCAQTTHFPYTFGAGTKLELK | 720 pM |

Target: T2, human MEFLIN protein
Assay: Western blotting on tagged human MEFLIN fragments
Experimental: The human embryonic kidney (HEK293) cell line was allowed to transiently express pRP-CMV vector having an insert of DNA encoding the human MEFLIN protein or a fragment thereof by lipofection, and a cell lysate was prepared. […] SDS-PAGE was performed using the cell lysate, and the electrophoresed protein was transferred to a PVDF membrane. The PVDF membrane was reacted at ordinary temperature for 1 hour using 5% skimmed milk/PBS. The primary antibody used was a culture supernatant of each hybridoma clone diluted 50-fold with PBS. For a positive subject, an anti-G196 antibody was used as a primary antibody. The PVDF membrane was reacted overnight at 4° C. in the presence of the primary antibody. Then, the PVDF membrane was washed with 0.05% Tween/PBS. The secondary antibody used was an anti-rat or anti-mouse antibody-horseradish peroxidase (HRP) conjugate. The secondary antibody was diluted 1000-fold with PBS and reacted with the PVDF membrane at ordinary temperature for 45 minutes. After washing with 0.05% Tween/PBS, the HRP label on the antibody was allowed to emit light using ECL (GE Healthcare Japan Corp.), and an image was captured into a computer using a CCD imager (Las 4000, GE Healthcare Japan Corp.).

| Binder | binding result |
| --- | --- |
| 27-7 antibody (antibody, V domains shown, Rat hybridoma monoclonal antibody; used as hybridoma culture supernatant; also called clone 27-7) VH: EVQLVESGGSLVQPGGSLKLSCVASGYTFSKYWMDWVRQTPGKSLEWIGEINTDGSKTNYAPSIKDRFTISRDNAKSTLYLQMSNVKSDDTAIYYCTNWEDYWGQGVMVTVSS VL: DVVMTQTPPSLSVAIGQSVSISCKSSQSLVYSDGKTYLHWLLQSSGRSPKRLIYQVSNLDSGVPDRFSGTGSQKDFTLKISRVEAKDLGVYYCAQTTHFPYTFGAGTKLELK | binds |
| 35-9 antibody (antibody, V domains shown, Rat hybridoma monoclonal antibody; used as hybridoma culture supernatant; also called clone 35-9) VH: QVQLTESGPGLVQPSQTLSLTCTVSGFSLSSYGVIWVRQPPGKGLEWMGVIWGNGNTNYNSTLKSRLSISRDTSKSQVFLKMNILQTEDTAMYFCARWESGDYWGQGVTVTVSS VL: DVVMTQTPVSLSVAVGQPASISCTSSQSLVGSGGKTYLNWFLQRPGQSPKRLISLVSKLDSGIPDRFSGSGSETDFTLKISRVEADDLGVYYCLQGTHFPWTFGGGTKQELK | binds |
| 32-1 antibody (antibody, V domains shown, Mouse hybridoma monoclonal antibody; used as hybridoma culture supernatant; also called clone 32-1) VH: VQLQQSGGDLVKPGGSLKLSCAASGFTFSSYGMSWVRQTPDKRLEWVATISSGGSYTYYPDSVKGRFTISRDNAKNTLYLQMSSLKSEDTAMYYCVIDYDVMDYWGQGTSVTVSS VL: DIVMTQTPSSLAVSAGEKVTMSCKSSQSLLNSRTRKNYLAWYQQKPGQSPKLLIYWASTRESGVPDRFTGSGSGTDFTLTISSVQAEDLAVYYCKQSYNLRTFGGGTKLEIK | binds |
| 11-8 antibody (antibody, V domains shown, Mouse hybridoma monoclonal antibody; used as hybridoma culture supernatant; also called clone 11-8) VH: VQLQESGPELVKPGASVKISCKASGYSFTDYIILWVKQSHGKSLEWIGNINPYSGNTRYNLKFKGKATLTVDKSSSTAYMQLNSLTSEDSAVYYCARDGDDYAMDYWGQGTSVTVSS VL: DIVITQTPLSLPVSLGDQASISCRSSQSIVHSNGNTYLEWYLQKPGQSPRLLIYKVSNRFSGVPDRFSGSGSGTDFTLKISRVETEDLGVYYCFQGSHVPWTFGGGTKLEIK | binds |
| 27-8 antibody (antibody, V domains shown, Rat hybridoma monoclonal antibody; used as hybridoma culture supernatant; also called clone 27-8) VH: VQLTESGPGLVKPSQSLSLTCSVTGYTITSGYDWSWIRKFPGNKMEWMGYITYSGSTNYNPSLKSRISITRDTSKNQFFLQLNSVTTEDTATYYCSRDIAAISFAYWGQGTLVTVSS VL: DVVMTQTPVAQPVTLGDQASISCRSSQSLVHSNGNTYLEWYLQKPGQSPQLLIYKVSNRFSGVPDRFIGSGSGSDFTLKISRVEPEDLGVYYCFQATHVPLTFGSGTKLEIK | binds |
| 46-3 antibody (antibody, V domains shown, Rat hybridoma monoclonal antibody; used as hybridoma culture supernatant; also called clone 46-3) VH: VQLKESGPGLVKPSQSLSLTCSVTGYTITSGYDWSWIRKFPGNKMEWMGFITYSGSTHHNPSLKSRISITRDTSRNQFFLQLNSVTTEDSATYYCARDFSGISFAYWGQGTLVSVSS VL: DVVLTQTPVAQPVTLGDQVSISCRSSQSLVHSNGNTYLEWYLQKPGQSPQLLIYKVSNRFSGVPDRFIGSGSGSDFTLKISRVEPEDLGIYYCFQATHDPLTFGSGTKLEIK | binds |
| 34-4 antibody (antibody, V domains shown, Rat hybridoma monoclonal antibody; used as hybridoma culture supernatant; also called clone 34-4) VH: QVQLMESGPGLVQPSQTLSLTCTVSGFSLTSYDMHWVRQPPGKGLEWMGVIWGNGNTHYNSALKSRLSISRDTSKSQVFLKMNSLQTENTAIYFCTGGYFYWGQGVTVTVSS VL: DVVMTQTPVSLSVAIGHPASISCKSSQSLVGTGGKTYLSWLLQRPGQSPKRLIYLVSKLDSGIPDRFSGSGSETDFTLKISRVEADDLGVYYCLQGTHFPFTFGSGTQLEMK | binds |
